In US20100285597:
Substitutions are numbered along the chain they refer to.

What was measured:
[1] = target: T1, S323A point mutant of nectin-1
T1 chain: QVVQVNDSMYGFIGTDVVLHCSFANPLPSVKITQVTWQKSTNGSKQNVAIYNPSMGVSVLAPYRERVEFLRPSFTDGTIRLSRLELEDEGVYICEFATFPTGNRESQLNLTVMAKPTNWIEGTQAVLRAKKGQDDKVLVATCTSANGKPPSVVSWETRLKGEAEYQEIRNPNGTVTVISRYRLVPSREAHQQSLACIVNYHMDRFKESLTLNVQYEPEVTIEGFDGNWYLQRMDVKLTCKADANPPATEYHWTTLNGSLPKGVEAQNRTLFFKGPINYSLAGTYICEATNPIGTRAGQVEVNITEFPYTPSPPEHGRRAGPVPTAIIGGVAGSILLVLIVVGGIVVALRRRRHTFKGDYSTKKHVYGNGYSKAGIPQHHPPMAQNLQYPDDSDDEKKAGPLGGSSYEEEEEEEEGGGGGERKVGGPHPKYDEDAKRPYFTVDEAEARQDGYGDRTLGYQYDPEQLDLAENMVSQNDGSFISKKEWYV

[2] = target: T2, T310A point mutant of nectin-1
T2 chain: T1 chain with T283A, A296S

[3] = target: T3, Y311A point mutant of nectin-1
T3 chain: T1 chain with Y284A, A296S

B1: BACE1 (protein)
chain: ETDEEPEEPGRRGSFVEMVDNLRGKSGQGYYVEMTVGSPPQTLNILVDTGSSNFAVGAAPHPFLHRYYQRQLSSTYRDLRKGVYVPYTQGKWEGELGTDLVSIPHGPNVTVRANIAAITESDKFFINGSNWEGILGLAYAEIARPDDSLEPFFDSLVKQTHVPNLFSLQLCGAGFPLNQSEVLASVGGSMIIGGIDHSLYTGSLWYTPIRREWYYEVIIVRVEINGQDLKMDCKEYNYDKSIVDSGTTNLRLPKKVFEAAVKSIKAASSTEKFPDGFWLGEQLVCWQAGTTPWNIFPVISLYLMGEVTNQSFRITILPQQYLRPVEDVATSQDDCYKFAISQSSTGTVMGAVIMEGFYVVFDRARKRIGFAVSACHVHDEFRTAAVEGPFVTLDMEDCGYNIPQTDESTLMTIAYVMAAICALFMLPLCLMVCQWRCLRCLRQQHDDFADDISLLK
[1]
  production of CTF bands (Western blot of HEK 293 lysates): Co-expression with BACE1 substantially increased production of CTF bands for the nectin-1 polypeptide mutant S323A
[2]
  production of CTF bands (Western blot of HEK 293 lysates): somewhat less effectively increased production in the other two mutants, T310A and Y311A
[3]
  production of CTF bands (Western blot of HEK 293 lysates): somewhat less effectively increased production in the other two mutants, T310A and Y311A
